US20230357429A1 (JANUX THERAPEUTICS, published 2023)
Numbering of substitutions follows the chain as printed. Names may count otherwise. Where no end group is shown, it is not given here.

T1: Peptide-37 (cysteine pairing not given here; also: biotinylated, site not given here)
T1 peptide: VDFCYLYNWPVCSK

T2: Peptide-3 (cysteine pairing not given here; also: biotinylated, site not given here)
T2 peptide: IDFCMLYNWPICAG

T3: Peptide-39 (cysteine pairing not given here; also: biotinylated, site not given here)
T3 peptide: VDFCGLYHWPICYQVD

T4: Peptide-63 (cysteine pairing not given here; also: biotinylated, site not given here)
T4 peptide: IDFCLIYNWPVCDT

T5: Peptide-8 (cysteine pairing not given here; also: biotinylated, site not given here)
T5 peptide: VDFCGLYHWPICYQ

T6: Peptide-25 (cysteine pairing not given here; also: biotinylated (site not given here))
T6 peptide: VDFCKIYSWPVCHQ

T7: Peptide-36 (cysteine pairing not given here; also: biotinylated, site not given here)
T7 peptide: VDFCYQYGWPICSR

T8: Peptide-38 (cysteine pairing not given here; also: biotinylated, site not given here)
T8 peptide: VDFCSIYHWPVCYV

T9: Peptide-33 (cysteine pairing not given here; also: biotinylated, site not given here)
T9 peptide: PDFCYMYNWPVCVT

T10: Peptide-62 (cysteine pairing not given here; also: biotinylated, site not given here)
T10 peptide: IDFCAVYKWPVCQV

T11: Peptide-41 (cysteine pairing not given here; also: biotinylated, site not given here)
T11 peptide: VDFCGLYHWPICYQVY

T12: Peptide-40 (cysteine pairing not given here; also: biotinylated, site not given here)
T12 peptide: VDFCYLYSWPICTK

T13: Peptide-2 (cysteine pairing not given here; also: biotinylated (site not given here))
T13 peptide: IDFCAVYKWPVCQV

T14: Peptide-6 (cysteine pairing not given here; also: biotinylated, site not given here)
T14 peptide: IDFCLIYNWPVCDT

T15: Peptide-5 (cysteine pairing not given here; also: biotinylated, site not given here)
T15 peptide: VDFCKLYNWPVCQT

T16: Peptide-12 (cysteine pairing not given here; also: biotinylated (site not given here))
T16 peptide: PDFCAVYRWPICYQ

T17: Peptide-14 (cysteine pairing not given here; also: biotinylated (site not given here))
T17 peptide: LDFCKIYDWPICHL

T18: Peptide-18 (cysteine pairing not given here; also: biotinylated (site not given here))
T18 peptide: MDFCQIYDWPICRL

T19: Peptide-20 (cysteine pairing not given here; also: biotinylated (site not given here))
T19 peptide: VDFCSFYRWPICET

T20: Peptide-13 (cysteine pairing not given here; also: biotinylated (site not given here))
T20 peptide: VDFCELYRWPICNS

T21: Peptide-17 (cysteine pairing not given here; also: biotinylated (site not given here))
T21 peptide: IDFCLLYDWPICGR

T22: Peptide-27 (cysteine pairing not given here; also: biotinylated, site not given here)
T22 peptide: FSLVCVRNLYCWNV

T23: Peptide-28 (cysteine pairing not given here; also: biotinylated, site not given here)
T23 peptide: NYLLCVKNLYCWIV

T24: Peptide-10 (cysteine pairing not given here; also: biotinylated (site not given here))
T24 peptide: IDFCAIYQWPVCRS

T25: Peptide-4 (cysteine pairing not given here; also: biotinylated, site not given here)
T25 peptide: VDFCKIYAWPICGS

T26: Peptide-31 (cysteine pairing not given here; also: biotinylated, site not given here)
T26 peptide: YSLVCVKNLYCWNL

T27: Peptide-1 (cysteine pairing not given here; also: biotinylated (site not given here))
T27 peptide: IDFCAMYQWPICDT

T28: Peptide-26 (cysteine pairing not given here; also: biotinylated, site not given here)
T28 peptide: DNLICVKNLWCWIA

T29: Peptide-7 (cysteine pairing not given here; also: biotinylated, site not given here)
T29 peptide: EDFCKLYNWPICYQ

T30: Peptide-29 (cysteine pairing not given here; also: biotinylated, site not given here)
T30 peptide: SYLVCVKNVYCWTA

B1: TBD-1 wt (Fab, V domains shown)
VH: QVQLQQSGSELKKPGASVKVSCKASGYTFTNYGMNWVKQAPGQGLKWMGWINTYTGEPTYTDDFKGRFAFSLDTSVSTAYLQISSLKADDTAVYFCARGGFGSSYWYFDVWGQGSLVTVSS
VL: DIQLTQSPSSLSASVGDRVSITCKASQDVSIAVAWYQQKPGKAPKLLIYSASYRYTGVPDRFSGSGSGTDFTLTISSLQPEDFAVYYCQQHYITPLTFGAGTKVEIKR
notes: Fab; the heavy chain entry is VH-CH1; also called wild-type anti-TROP2 Fab (hRS7); TROP2 Fab
B2: TBD-17 (HC S104A) (Fab, V domains shown)
VH: B1 VH with S104A
VL: B1 VL
notes: Fab; also called HC S104A mutant

Biological target: T1, Peptide-37
Experiment: ELISA, Fab on captured biotin-peptide
Method: (§1) Binding was measured in a standard ELISA format. […] Bound TBDs were detected using a standard horse radish peroxidase conjugate secondary antibody. The ELISA signal was plotted versus the log-scale concentration of TBD. The concentrations of TBD required to observe half maximal binding signal (EC₅₀s) were calculated using Graphpad Prism software.

EC50	Binder
31.7 nM	B1
19.5 nM	B2

Biological target: T2, Peptide-3
Experiment: ELISA, Fab on captured biotin-peptide
Method: as §1

EC50	Binder
164 nM	B1
23 nM	B2

Biological target: T3, Peptide-39
Experiment: ELISA, Fab on captured biotin-peptide
Method: as §1

EC50	Binder
95.2 nM	B1
16.4 nM	B2

Biological target: T4, Peptide-63
Experiment: ELISA, Fab on captured biotin-peptide
Method: as §1

EC50	Binder
162 nM	B1
30 nM	B2

Biological target: T5, Peptide-8
Experiment: ELISA, Fab on captured biotin-peptide
Method: as §1

EC50	Binder
35.2 nM	B1
8 nM	B2

Biological target: T6, Peptide-25
Experiment: ELISA, Fab on captured biotin-peptide
Method: as §1

EC50	Binder
217 nM	B1
35 nM	B2

Biological target: T7, Peptide-36
Experiment: ELISA, Fab on captured biotin-peptide
Method: as §1

EC50	Binder
41.4 nM	B1
30.2 nM	B2

Biological target: T8, Peptide-38
Experiment: ELISA, Fab on captured biotin-peptide
Method: as §1

EC50	Binder
178 nM	B1
31.8 nM	B2

Biological target: T9, Peptide-33
Experiment: ELISA, Fab on captured biotin-peptide
Method: as §1

EC50	Binder
29.7 nM	B1
24.1 nM	B2

Biological target: T10, Peptide-62
Experiment: ELISA, Fab on captured biotin-peptide
Method: as §1

EC50	Binder
81.4 nM	B1
9.2 nM	B2

Biological target: T11, Peptide-41
Experiment: ELISA, Fab on captured biotin-peptide
Method: as §1

EC50	Binder
102 nM	B1
28.9 nM	B2

Biological target: T12, Peptide-40
Experiment: ELISA, Fab on captured biotin-peptide
Method: as §1

EC50	Binder
39.7 nM	B1
27 nM	B2

Biological target: T13, Peptide-2
Experiment: ELISA, Fab on captured biotin-peptide
Method: as §1

EC50	Binder
13.7 nM	B1
5.7 nM	B2

Biological target: T2, Peptide-3
Experiment: ELISA, Fab on captured biotin-peptide
Remark: another data set of the same source
Method: as §1

EC50	Binder
12.8 nM	B1
6.4 nM	B2

Biological target: T14, Peptide-6
Experiment: ELISA, Fab on captured biotin-peptide
Method: as §1

EC50	Binder
28.5 nM	B1
10.1 nM	B2

Biological target: T15, Peptide-5
Experiment: ELISA, Fab on captured biotin-peptide
Method: as §1

EC50	Binder
16.5 nM	B1
5.4 nM	B2

Biological target: T16, Peptide-12
Experiment: ELISA, Fab on captured biotin-peptide
Method: as §1

EC50	Binder
35.9 nM	B1
6.8 nM	B2

Biological target: T17, Peptide-14
Experiment: ELISA, Fab on captured biotin-peptide
Method: as §1

EC50	Binder
379 nM	B1
71 nM	B2

Biological target: T5, Peptide-8
Experiment: ELISA, Fab on captured biotin-peptide
Remark: another data set of the same source
Method: as §1

EC50	Binder
40.2 nM	B1
8.2 nM	B2

Biological target: T18, Peptide-18
Experiment: ELISA, Fab on captured biotin-peptide
Method: as §1

EC50	Binder
474 nM	B1
36.7 nM	B2

Biological target: T19, Peptide-20
Experiment: ELISA, Fab on captured biotin-peptide
Method: as §1

EC50	Binder
600 nM	B1
115 nM	B2

Biological target: T20, Peptide-13
Experiment: ELISA, Fab on captured biotin-peptide
Method: as §1

EC50	Binder
157 nM	B1
10 nM	B2

Biological target: T21, Peptide-17
Experiment: ELISA, Fab on captured biotin-peptide
Method: as §1

EC50	Binder
132 nM	B1
8.5 nM	B2

Biological target: T22, Peptide-27
Experiment: ELISA, Fab on captured biotin-peptide
Method: as §1

EC50	Binder
23.9 nM	B1
107 nM	B2

Biological target: T23, Peptide-28
Experiment: ELISA, Fab on captured biotin-peptide
Method: as §1

EC50	Binder
247 nM	B2

Biological target: T24, Peptide-10
Experiment: ELISA, Fab on captured biotin-peptide
Method: as §1

EC50	Binder
62.6 nM	B1
6.5 nM	B2

Biological target: T25, Peptide-4
Experiment: ELISA, Fab on captured biotin-peptide
Method: as §1

EC50	Binder
9.2 nM	B1
6.5 nM	B2

Biological target: T6, Peptide-25
Experiment: ELISA, Fab on captured biotin-peptide
Remark: another data set of the same source
Method: as §1

EC50	Binder
48.2 nM	B1
38.8 nM	B2

Biological target: T26, Peptide-31
Experiment: ELISA, Fab on captured biotin-peptide
Method: as §1

EC50	Binder
42.1 nM	B1
164 nM	B2

Biological target: T27, Peptide-1
Experiment: ELISA, Fab on captured biotin-peptide
Method: as §1

EC50	Binder
22.5 nM	B1
7.3 nM	B2

Biological target: T28, Peptide-26
Experiment: ELISA, Fab on captured biotin-peptide
Method: as §1

EC50	Binder
85 nM	B1
379 nM	B2

Biological target: T29, Peptide-7
Experiment: ELISA, Fab on captured biotin-peptide
Method: as §1

EC50	Binder
37.5 nM	B1
15.6 nM	B2

Biological target: T30, Peptide-29
Experiment: ELISA, Fab on captured biotin-peptide
Method: as §1

EC50	Binder
6.7 nM	B1
24.8 nM	B2
